Reference: patent publication US20250129168A1
Changes are numbered by the printed parent chain.

B1: 2M24A.23 hFab H1 (Fab, V domains shown)
VH: QVQLVQSGAEVKKPGASVKVSCKSSGYTFTDYYIHWVRQAPGQGLEWMGWINPNSGDTNYAQKFQGRVTMTRDTSISTAYMELSRLRSDDTAVYYCARNSGSYSFGYWGQGTLVTVSS
VL: DIQMTQSPSSVSASVGDRVTITCRASQGISSWLAWYQQKPGKAPKLLIFGASSLQSGVPSRFSGSGSGTDFTLTVSSLQPEDFATYYCQQAYSFPFTFGPGTKVDIE
B2: 2M24A.26 hFab H4 (Fab, V domains shown)
VH: B1 VH with I34M
VL: B1 VL
B3: 2M24A.25 hFab H3 (Fab, V domains shown)
VH: B1 VH with S24A
VL: B1 VL
B4: 2M24A.1.22 (Fab, V domains shown)
VH: B1 VH with V68I, M81L, Y94F, Y107A
VL: B1 VL
B5: 2M24A.1.14 hFab (Fab, V domains shown)
VH: B1 VH with V68I, M81L, Y94F, Y103A
VL: B1 VL
B6: 2M24A.1.16 (Fab, V domains shown)
VH: B1 VH with V68I, M81L, Y94F, S100A
VL: B1 VL
B7: 2M24A.1.19 (Fab, V domains shown)
VH: B1 VH with V68I, M81L, Y94F, S104A
VL: B1 VL
B8: 2M24A.1.7 hFab (Fab, V domains shown)
VH: B1 VH with D57A, V68I, M81L, Y94F
VL: B1 VL with Y92F
B9: 2M24A.1.20 (Fab, V domains shown)
VH: B1 VH with V68I, M81L, Y94F, F105A
VL: B1 VL
B10: 2M24A.1.2 hFab (Fab, V domains shown)
VH: B1 VH with D57A, V68I, M81L, Y94F
VL: B1 VL with Y92A
B11: 2M24A.1.11 hFab (Fab, V domains shown)
VH: B1 VH with D31A, V68I, M81L, Y94F
VL: B1 VL
B12: 2M24A.1.13 hFab (Fab, V domains shown)
VH: B1 VH with V68I, M81L, Y94F, N99A
VL: B1 VL
B13: 2M24A.1.17 (Fab, V domains shown)
VH: B1 VH with V68I, M81L, Y94F, G101A
VL: B1 VL
B14: 2M24A.1.9 hFab (Fab, V domains shown)
VH: B1 VH with V68I, M81L, Y94F, Y103A
VL: B1 VL with Y92F
B15: 2M24A.1.12 hFab (Fab, V domains shown)
VH: B1 VH with D57A, V68I, M81L, Y94F
VL: B1 VL
B16: 2M24A.1.6 hFab (Fab, V domains shown)
VH: B1 VH with D31A, V68I, M81L, Y94F
VL: B1 VL with Y92F
B17: 2M24A.1.18 (Fab, V domains shown)
VH: B1 VH with V68I, M81L, Y94F, S102A
VL: B1 VL
B18: 2M24A.1.1 hFab (Fab, V domains shown)
VH: B1 VH with D31A, V68I, M81L, Y94F
VL: B1 VL with Y92A
B19: 2M24A.1.15 (Fab, V domains shown)
VH: B1 VH with V68I, M81L, Y94F, R98A
VL: B1 VL
B20: 2M24A.1.8 hFab (Fab, V domains shown)
VH: B1 VH with V68I, M81L, Y94F, N99A
VL: B1 VL with Y92F
B21: 2M24A.1.21 (Fab, V domains shown)
VH: B1 VH with V68I, M81L, Y94F, G106A
VL: B1 VL
B22: 2M24A.1.3 hFab (Fab, V domains shown)
VH: B1 VH with V68I, M81L, Y94F, N99A
VL: B1 VL with Y92A
B23: 2M24A.1.4 hFab (Fab, V domains shown)
VH: B1 VH with V68I, M81L, Y94F, Y103A
VL: B1 VL with Y92A

The binders below were run against recombinant human-Dectin-1 mouse Fc fusion (human) (UniProt Q9BXN2) (assay: biosensor, Fab, first K dis column).

Row | koff [s⁻¹] | Binder
1 | 0.00841 | B1
2 | 0.0053 | B2
3 | 0.00765 | B3

These binders were tested against recombinant human-Dectin-1 mouse Fc fusion (human) (UniProt Q9BXN2) (assay: biosensor, Fab, third K dis column).

Row | koff [s⁻¹] | Binder
4 | 0.00204 | B1
5 | 0.0016 | B2
6 | 0.00214 | B3

Each binder was assayed against recombinant human-Dectin-1 mouse Fc fusion (human) (UniProt Q9BXN2) (assay: Octet BLI, delta between the two X values).

Row | delta [%] | Binder
7 | 15 | B4
8 | 100 | B5
9 | 5 | B6
10 | 22 | B7
11 | 22 | B8
12 | 78 | B9
13 | 98 | B10
14 | 16 | B11
15 | 100 | B12
16 | 1 | B13
17 | 100 | B14
18 | 19 | B15
19 | 21 | B16
20 | 9 | B17
21 | 98 | B18
22 | 62 | B19
23 | 100 | B20
24 | 8 | B21

Each binder was assayed against recombinant human-Dectin-1 mouse Fc fusion (human) (UniProt Q9BXN2) (assay: biosensor, Fab, second K dis column).

Row | koff [s⁻¹] | Binder
25 | 0.00143 | B1
26 | 0.00102 | B2
27 | 0.00132 | B3

These binders were tested against recombinant human-Dectin-1 mouse Fc fusion (human) (UniProt Q9BXN2) (assay: biosensor, Fab, Ave K dis (n = 3); repeats Table 3).

Row | koff [s⁻¹] | Binder
28 | 0.00396 | B1
29 | 0.00264 | B2
30 | 0.0037 | B3

The binders below were run against recombinant human-Dectin-1 mouse Fc fusion (human) (UniProt Q9BXN2) (assay: biosensor, Fab, Ave of three).

Row | koff [s⁻¹] | Binder
31 | 0.00396 | B1
32 | 0.00264 | B2
33 | 0.0037 | B3

These binders were tested against recombinant human-Dectin-1 mouse Fc fusion (human) (UniProt Q9BXN2) (assay: Octet BLI, response at X).

Row | X = 290 | X = 350 | X = 340 | X = 470 | Binder
34 | 0.131 | 0.112 |  |  | B4
35 |  |  | 0.106 | 0 | B5
36 | 0.12 | 0.114 |  |  | B6
37 | 0.126 | 0.0983 |  |  | B7
38 |  |  | 0.51 | 0.398 | B8
39 | 0.0981 | 0.0215 |  |  | B9
40 |  |  | 0.331 | 0.006 | B10
41 |  |  | 0.499 | 0.418 | B11
42 |  |  | 0.028 | 0 | B12
43 | 0.131 | 0.129 |  |  | B13
44 |  |  | 0.018 | 0 | B14
45 |  |  | 0.49 | 0.399 | B15
46 |  |  | 0.493 | 0.39 | B16
47 | 0.138 | 0.124 |  |  | B17
48 |  |  | 0 | 0 | B22
49 |  |  | 0.305 | 0.006 | B18
50 | 0.082 | 0.0314 |  |  | B19
51 |  |  | 0.042 | 0 | B20
52 | 0.125 | 0.114 |  |  | B21
53 |  |  | 0 | 0 | B23
